Data from patent US20260001914A1, “MACROCYCLIC PEPTIDES TARGETING KRAS” (Merck Sharp & Dohme LLC, priority 2022, published 2026).

Key:
[1] = molecular target: KRAS-G12D in AsPC-1 cells (UniProt P01116); test: cell-based or functional assay
[2] = molecular target: Biotin-labeled KRAS-G12D protein (UniProt P01116-2 1-169, limits assumed, biotin label (site not stated); loaded with BODIPY-GDP); test: cell-based or functional assay

Substance | AlphaScreen @18 h, EC50 [1] | SOS assay EC50 [2]
cyclo(FLac-NMeDabN3-PyrimAla-Nle-Phe2F-Nle-NMe3Pal-amBCP) (peptide) | 11600 nM | 80.9 nM
cyclo(FLac-NMeNvaF2-PyrimAla-cPrA-Phe2F-hL-NMeF-amBCP) (peptide) | 1770 nM | 173 nM
cyclo(FLac-NMeNvaF-3Pal-Nle-Phe2F-Nle-NMe3Pal-amBCP) (peptide) | 20700 nM | 297 nM
cyclo(FLac-NMeNvaF-PyrimAla-cPrA-Phe2F-hL-NMeF-amBCP) (peptide) | 1230 nM | 26 nM
cyclo(FLac-NMeNvalmid-3Pal-Nle-Phe2F-Nle-NMeF-amBCP) (peptide) | 5160 nM | 28.9 nM
cyclo(FLac-NMeNvalmid-4CF33Pal-Nle-Phe2F-Nle-NMeF-amBCP) isomer 1 (peptide) | > 50800 nM | 188 nM
cyclo(FLac-NMeNvalmid-4CF33Pal-Nle-Phe2F-Nle-NMeF-amBCP) isomer 2 (peptide) | > 50800 nM | 62.8 nM
cyclo(FLac-NMeNvalmid-4F3Pal-Nle-Phe2F-Nle-NMeF-amBCP) isomer 1 (peptide) | > 50800 nM | 101 nM
cyclo(FLac-NMeNvalmid-PyrimAla-Nle-F2FLac-Nle-NMe3Pal-amBCP) (peptide) | > 50800 nM | 1160 nM
cyclo(FLac-NMeNvalmid-PyrimAla-Nle-Phe2F-Nle-NMeF-amBCP) isomer 1 (peptide) | > 50800 nM | 494 nM
cyclo(FLac-NMeNvalmid-PyrimAla-Nle-Phe2F-Nle-NMeF-amBCP) isomer 2 (peptide) | 11100 nM | 25.3 nM
cyclo(FLac-NMeS-3Pal-Nle-Phe2F-Nle-NMe3Pal-amBCP) (peptide) | > 50800 nM | 466 nM
cyclo(FLac-NMeS-PyrimAla-Nle-Phe2F-Nle-NMe3Pal-amBCP) (peptide) | > 50800 nM | 375 nM
cyclo(FLac-R-3Pal-Nle-Phe2F-Nle-NMeF-amBCP) (peptide) | 39400 nM | 20.7 nM
cyclo(FLac-nMeSMe-3Pal-Nle-Phe2F-Nle-NMe3Pal-amBCP) (peptide) | > 50800 nM | 6410 nM
cyclo(INal-R-Phe4CH2NH2-Nle-Y-Nle-NMeF-daMeC-C1Ac) (peptide) | > 50800 nM | 1460 nM
cyclo(Phe4Me-NMeA-3Pal-Nle-Phe2F-Nle-NMe3Pal-amBCP) (peptide) | 37200 nM | 91.1 nM
cyclo(Y-NMeA-3Pal-Nle-Phe2F-Nle-NMe3Pal-amBCP) (peptide) | 46400 nM | 440 nM
cyclo(dF-R-Phe4Gn-Nle-TyrOMe-Nle-NMeF-c3amCblc) (peptide) | > 50800 nM | 17.3 nM

Next, values leading:

AlphaScreen @18 h, EC50 [1] | SOS assay EC50 [2] | Substance
21700 nM | 3060 nM | cyclo(FLac-NMeNle-3Pal-DabN3-Phe2F-Nle-NMe3Pal-amBCP) (peptide)
> 50800 nM | 758 nM | cyclo(FLac-NMeNvalmid-3Pal-Nle-Phe2F-Nle-NMe3Pal-c3amCblc) (peptide)
> 50800 nM | 69.7 nM | cyclo(FLac-NMeNvalmid-4F3Pal-Nle-Phe2F-Nle-NMeF-amBCP) isomer 2 (peptide)
> 50800 nM | 27.2 nM | cyclo(FLac-NMeNvalmid-PyrimAla-Nle-Phe2F-Nle-NMe3Pal-amBCP) (peptide)
> 50800 nM | 10.8 nM | cyclo(FLac-R-3Pal-cBuA-TyrOMe-Ahp-NMeF-amBCP) (peptide)
32300 nM | 22.3 nM | cyclo(Phe3Me-NMeA-3Pal-Nle-Phe2F-Nle-NMe3Pal-amBCP) (peptide)
42800 nM | 99.9 nM | cyclo(Phe4F-NMeA-3Pal-Nle-Phe2F-Nle-NMe3Pal-amBCP) (peptide)
> 50800 nM | 756 nM | cyclo(TyrOMe-NMeA~3Pal-Nle-Phe2F-Nle-NMe3Pal-amBCP) (peptide)
